As usually defined, the EC50 is the concentration at which the effect is half-maximal. The term IC50 denotes the concentration that inhibits the measured activity by half. What is called Kd is the equilibrium constant for the complex coming apart. Broadly, the koff is the first-order rate constant of dissociation. The term kon denotes the second-order rate constant of association.

Changes are numbered by the printed parent chain. Where two headings read alike, the source gives them in different places.

The text below walks through data of patent US20250092124A1 (YUNNAN BAIYAO GROUP, published 2025).

Test [1] addresses T1, fusion protein comprising the extracellular region of monkey GDF15 protein and human IgG1-FC (monkey (cyno); human, UniProt G7PWZ3 197-308, limits assumed).
T1 construct: extracellular domain; also called cynoGDF15
T1 sequence (looked up): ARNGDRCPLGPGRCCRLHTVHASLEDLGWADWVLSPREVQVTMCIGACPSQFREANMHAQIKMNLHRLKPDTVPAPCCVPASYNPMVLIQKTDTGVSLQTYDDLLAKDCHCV
The experiment in a line: ELISA, monkey GDF15-hIgG1 Fc coated, HRP anti-mouse IgG. The protocol:
(§1) The antibodies to be tested (purified antibodies from hybridoma, see Table 1), positive control antibody AV380-mIgG1 (its sequence is from Aveo Oncology; see SEQ ID NO. 1 and SEQ ID NO. 2 for its heavy chain and light chain variable regions, respectively; see SEQ ID NO. 3 and SEQ ID NO. 4 for its heavy chain and light chain constant regions, respectively) and blank control (PBS) were added to the wells. […] The wells were incubated at 37° C. for 1 hour, washed, and dried via tapping. Then the enzyme-labeled secondary antibody, horseradish peroxidase-labeled goat anti-mouse IgG (SIGMA, catalog number A9044-2 ml) was added to each well, at a dilution of 1:10000, 100 μl/well. The wells were incubated at 37° C. for 2 hours, washed, and dried via tapping. 100 μl of freshly prepared developing solution TMB was added to each well and incubated at 37° C. for 30 minutes.
(§2) The experiment was performed as detailed in Example 2, except that the fusion protein in Example 2 was replaced with a fusion protein comprising the extracellular region of monkey GDF15 protein (Genbank accession number EHH29815.1) and human IgG1-FC (Genbank accession number CAC20454.1). The results were shown in Table 2-1, Table 2-2 and FIGS. 2-1 and 2-2.
(An ELISA detects its analyte on a solid surface through an enzyme-linked reagent.)

For test [2], the target named is T2, GDF15-mFC protein (human; mouse, UniProt Q99988 197-308).
T2 construct: extracellular domain;domain: IgG2a-FC; also called GDF15-mFc fusion protein
T2 sequence (looked up): T1 sequence (looked up) with R6H, H21R, E54A, M63T, N64S, V112I
The experiment in a line: blocking ELISA, GFRAL-hIgG1 Fc coated (competitor), GDF15-mFC 20 ng/well mixed with antibody. The method, then:
(§3) A fusion protein comprising the extracellular region of GFRAL protein (Genbank accession number NM_207410.2) and human IgG1-FC (Genbank accession number CAC20454.1) was diluted to 1 g/ml with coating solution, followed by adding to ELISA plate at 50 μl/well and incubating at 4° C. overnight. The solution in the wells was discarded and the plate was washed 3 times with washing solution, each time for 3-5 minutes, and dried via tapping. 200 μl of blocking solution was added to each well followed by incubating at 4° C. overnight. The plate was washed 3 times with washing solution, and the coated plate may be stored at −20° C. or 4° C. for future use.
(§4) The antibodies to be tested, positive control antibody AV380-mIgG1 and blank control (PBS) were added to the wells. […] At the same time, GDF15-mFC protein (GDF15: Genbank accession number NM_004864.3; mFC: Genbank accession number AAH31470.1) was added at 20 ng/well and mixed with the antibodies to be tested. The wells were incubated at 37° C. for 1 hour, washed, and dried via tapping. Then the enzyme-labeled secondary antibody, horseradish peroxidase-labeled goat anti-mouse IgG (SIGMA, catalog number A9044-2 ml) was added to each well, at a dilution of 1:10000, 50-100 μl/well. The wells were incubated at 37° C. for 2 hours, washed, and dried via tapping. 100 μl of freshly prepared developing solution TMB was added to each well and incubated at 37° C. for 30 minutes. 2 mol/L H₂SO₄ was added to terminate the reaction, and the OD value was obtained on an enzyme-linked immunosorbent reader.

The target in test [3] is T3, GDF15-HIS (ACROBiosystems, CAT #: GD5-H5149) (human, UniProt Q99988 197-308).
T3 construct: Bought protein; also called GDF15 (ACROBiosystems, GD5-H5149); human GDF15; not shown: His tag
T3 sequence (looked up): T1 sequence (looked up) with R6H, H21R, E54A, M63T, N64S, V112I
Put plainly: BLI (ForteBio Octet), antibody immobilised, GDF15 200-6.25 nM. In general terms: BLI is a label-free optical method that tracks binding on a fibre tip over time.

Test [4] concerns the target T2, GDF15-mFC protein. The experiment in a line: blocking ELISA, GFRAL-hIgG1 Fc coated (competitor), GDF15-mFC 20 ng/well mixed with antibody. The method, then: as §3, §4
The source holds these as a separate data set.

Test [5] has as its target T4, fusion protein comprising the extracellular region of human GDF15 protein and human IgG1-FC (human, UniProt Q99988 197-308, limits assumed).
T4 construct: extracellular domain
T4 sequence (looked up): T1 sequence (looked up) with R6H, H21R, E54A, M63T, N64S, V112I
Put plainly: ELISA, human GDF15-hIgG1 Fc coated, HRP anti-mouse IgG. The protocol: as §3, with “human GDF15” for “GFRAL”, “NM_004864.3)” for “NM_207410.2)”, “[…]” for “g/ml”, “by” for “via”, “and incubated” for “followed by incubating”
as §1
(§5) 2 mol/L H₂SO₄ was added to terminate the reaction, and the OD values were read on enzyme-linked immunosorbent reader. The results were shown in Table 1-1, Table 1-2 and FIGS. 1-1 and 1-2.

The target in test [6] is T4, fusion protein comprising the …. The description is as above. The method, then: as §3, with “human GDF15” for “GFRAL”, “NM_004864.3)” for “NM_207410.2)”, “[…]” for “g/ml”, “by” for “via”, “and incubated” for “followed by incubating”
as §1, §5
The source holds these as a separate data set.

Test [7] addresses T1, fusion protein comprising the …. Put plainly: ELISA, monkey GDF15-hIgG1 Fc coated, HRP anti-mouse IgG. The protocol: as §1, §2
This is another data set of the same source.

For the next test, the target named is T5, cynoGDF15-mFC (monkey (cyno); mouse, UniProt G7PWZ3 197-308).
T5 construct: also called monkey GDF15 (cynoGDF15)
T5 sequence (looked up): T1 sequence (looked up)
Put plainly: ELISA, cynoGDF15-mFC coated. The method, then:
The experiment was performed as detailed in Example 2, except that the coating protein was cynoGDF15-mFC (GDF15: Genbank accession number EHH29815.1; mFC: Genbank accession number AAH31470.1), and the antibodies to be tested (the humanized antibodies), negative control antibody (hIgG1), and positive control antibodies Ponsegromab and AV380-hIgG1 were added to each well of the coated plate.

Test [8] concerns the target T3, GDF15-HIS (ACROBiosystems, CAT #: …). Put plainly: ELISA, GDF15-HIS coated. The protocol:
The experiment was performed as detailed in Example 2, except that the coating protein was GDF15-HIS (ACROBiosystems, CAT #: GD5-H5149), and the antibodies to be tested (the humanized antibodies), negative control antibody (hIgG1), positive control antibodies Ponsegromab (Pfizer; Drug Bank: D11909) and AV380-hlgG1 (the heavy chain and light chain constant regions of AV380-mIgG1 were replaced with the constant regions of human IgG, i.e., SEQ ID NO. 5 and SEQ ID NO. 6) were added to each well of the coated plate.

The target of test [9] is T2, GDF15-mFC protein. The experiment in a line: blocking ELISA as in Example 4, GFRAL-hIgG1 Fc coated (competitor), GDF15-mFC mixed with antibody. The method, then: as §3, §4
The experiment was performed as detailed in Example 4, except that the antibodies to be tested (the humanized antibodies), negative control antibody (hIgG1), and positive control antibodies Ponsegromab and AV380-hIgG1 were added to each well of the coated plate.

The target of test [10] is T3, GDF15-HIS (ACROBiosystems, CAT #: …). The experiment in a line: BLI (ForteBio Octet), antibody immobilised, GDF15 200-6.25 nM. This is another data set of the same source.
The target in test [11] is T2, GDF15-mFC protein. The experiment in a line: competitive ELISA, GFRAL-HIS coated (competitor), GDF15-mFc 0.3 µg/ml pre-incubated with antibody. The method, then:
GFRAL-HIS protein (ACROBiosystems, GFA-H52H3) was dissolved in PBS at a concentration of […] and was used to coat ELISA 96-well plate one day before blocking the plate with 2% BSA in PBS. 53E5 (hz), and control antibodies Ponsegromab and AV380-hIgG1 were 3.16-fold diluted for 10 gradients with a starting concentration of 20 μg/ml. At the same time, GDF15-mFc protein was added at a final concentration of 0.3 μg/ml. After incubation at room temperature for 1 hour, the mixtures were added to 96-well plate coated with GFRAL-HIS. After incubated at room temperature for 1 hour, the plate was washed and then HRP-anti-mouse IgG was added to the plate. After incubation at room temperature for 1 hour, the HRP enzyme activity (OD450) was detected. The HRP enzyme activity represents the relative amount of GDF15-mFc protein bound to GFRAL. The OD450 values and antibody concentrations were plotted. The dose-effect curve was fitted using the log (agonist) vs. response-variable slope (four-parameter) Logistic model to calculate IC50.

In test [12] the target is T3, GDF15-HIS (ACROBiosystems, CAT #: …). Put plainly: cell-based or functional assay.

B1: AV380-mIgG1 (antibody)
heavy: EVLLQQSGPELVKPGASVKIPCKASGYTFTDYNMDWVKQSHGKSLEWIGQINPNNGGIFFNQKFKGKATLTVDKSSNTAFMEVRSLTSEDTAVYYCAREAITTVGAMDYWGQGTSVTVSSAKTTPPSVYPLAPGSAAQTNSMVTLGCLVKGYFPEPVTVTWNSGSLSSGVHTFPAVLQSDLYTLSSSVTVPSSTWPSETVTCNVAHPASSTKVDKKIVPRDCGCKPCICTVPEVSSVFIFPPKPKDVLTITLTPKVTCVVVDISKDDPEVQFSWFVDDVEVHTAQTQPREEQFNSTFRSVSELPIMHQDWLNGKEFKCRVNSAAFPAPIEKTISKTKGRPKAPQVYTIPPPKEQMAKDKVSLTCMITDFFPEDITVEWQWNGQPAENYKNTQPIMDTDGSYFVYSKLNVQKSNWEAGNTFTCSVLHEGLHNHHTEKSLSHSPGK
light: DIQMTQSPASLSASVGETVTITCRTSENLHNYLAWYQQKQGKSPQLLVYDAKTLADGVPSRFSGSGSGTQYSLKINSLQPEDFGSYYCQHFWSSPYTFGGGTKLEIKRADAAPTVSIFPPSSEQLTSGGASVVCFLNNFYPKDINVKWKIDGSERQNGVLNSWTDQDSKDSTYSMSSTLTLTKDEYERHNSYTCEATHKTSTSPIVKSFNRNEC
notes: also called positive control antibody AV380-mIgG1
With B1, the EC50 in test [1] amounted to 0.0258 µg/mL; in test [5], 0.0313 µg/mL; in [6], 0.0296 µg/mL; in [7], 0.0146 µg/mL. Further, the IC50 with GDF15-mFC protein [2] came to 0.14 µg/mL; in the test with GDF15-mFC protein [4], 0.198 µg/mL. Moreover, the Kd in test [3] was found to be 0.097 nM. In addition, in [3], the koff was found to be 0.000117 s⁻¹. Moreover, the on-rate constant (kon) in [3] came to 1.2e+06 M⁻¹ s⁻¹.

B2: AV380-hIgG1 (antibody)
heavy: not shown
light: DIQMTQSPASLSASVGETVTITCRTSENLHNYLAWYQQKQGKSPQLLVYDAKTLADGVPSRFSGSGSGTQYSLKINSLQPEDFGSYYCQHFWSSPYTFGGGTKLEIKRTVAAPSVFIFPPSDEQLKSGTASVVCLLNNFYPREAKVQWKVDNALQSGNSQESVTEQDSKDSTYSLSSTLTLSKADYEKHKVYACEVTHQGLSSPVTKSFNRGEC
notes: also called AV380-hlgG1
In the test with cynoGDF15-mFC, B2 showed an EC50 of 0.0741 µg/mL and an OD450.Max of 1 OD450. In test [8], this molecule had an EC50 of 0.0823 µg/mL and an OD450.Max of 1.07 OD450. The IC50 with GDF15-mFC protein [9] was 0.231 µg/mL. For the same molecule, in test [10], the Kd is 0.0845 nM, the koff came out at 6.91e-05 s⁻¹ and the kon is 817000 M⁻¹ s⁻¹. For the same molecule, the IC50 with GDF15-mFC protein [11] worked out at 0.231 µg/mL. Further, in test [12], the “Bottom (luciferase activity fold, fitted curve), HEK293 SRE-LUC2-cRET-GFRAL reporter cells” value was found to be 1.03 and the “IC50, luciferase in HEK293 SRE-LUC2-cRET-GFRAL reporter cells stimulated with GDF15-His 5 ng/ml” value amounted to 0.0447 µg/mL.
